Measurements as given in PMC10540216, “Activity Guided Azide-methyllysine Photo-trapping for Substrate Profiling of Lysine Demethylases” (Journal of the American Chemical Society, 2023).

Tested on: KDM4A-I71AzF
Experiment: CASI: photo-crosslinking with HEK293T cell extracts, StrepTactin enrichment and LC-MS/MS proteomics;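 also: lysates from HEK293T cells pretreated with a KDM4 inhibitor to raise proteome methylation, affinity-purified after ±UV, gel-resolved, trypsin-digested, with exclusive unique peptides per protein averaged per condition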
Format: binding, human
Details: sheet "Final results but with 0.01"

Molecule	Fold change (+UV/-UV)
DHX15_HUMAN (protein, UniProt O43143 1-795, looked up) ATP-dependent RNA helicase …: MSKRHRLDLGEDYPSGKKRAGTDGKDRDRDRDREDRSKDRDRERDRGDREREREKEKEKELRASTNAMLISAGLPPLKASHSAHSTHSAHSTHSTHSAHSTHAGHAGHTSLPQCINPFTNLPHTPRYYDILKKRLQLPVWEYKDRFTDILVRHQSFVLVGETGSGKTTQIPQWCVEYMRSLPGPKRGVACTQPRRVAAMSVAQRVADEMDVMLGQEVGYSIRFEDCSSAKTILKYMTDGMLLREAMNDPLLERYGVIILDEAHERTLATDILMGVLKEVVRQRSDLKVIVMSATLDAGKFQIYFDNCPLLTIPGRTHPVEIFYTPEPERDYLEAAIRTVIQIHMCEEEEGDLLLFLTGQEEIDEACKRIKREVDDLGPEVGDIKIIPLYSTLPPQQQQRIFEPPPPKKQNGAIGRKVVVSTNIAETSLTIDGVVFVIDPGFAKQKVYNPRIRVESLLVTAISKASAQQRAGRAGRTRPGKCFRLYTEKAYKTEMQDNTYPEILRSNLGSVVLQLKKLGIDDLVHFDFMDPPAPETLMRALELLNYLAALNDDGDLTELGSMMAEFPLDPQLAKMVIASCDYNCSNEVLSITAMLSVPQCFVRPTEAKKAADEAKMRFAHIDGDHLTLLNVYHAFKQNHESVQWCYDNFINYRSLMSADNVRQQLSRIMDRFNLPRRSTDFTSRDYYINIRKALVTGYFMQVAHLERTGHYLTVKDNQVVQLHPSTVLDHKPEWVLYNEFVLTTKNYIRTCTDIKPEWLVKIAPQYYDMSNFPQCEAKRQLDRIIAKLQSKEYSQY	1.071
RPN1_HUMAN (protein, UniProt P04843 24-607, looked up) Dolichyl-diphosphooligosacchar …: ASSEAPPLINEDVKRTVDLSSHLAKVTAEVVLAHLGGGSTSRATSFLLALEPELEARLAHLGVQVKGEDEEENNLEVRETKIKGKSGRFFTVKLPVALDPGAKISVIVETVYTHVLHPYPTQITQSEKQFVVFEGNHYFYSPYPTKTQTMRVKLASRNVESYTKLGNPTRSEDLLDYGPFRDVPAYSQDTFKVHYENNSPFLTITSMTRVIEVSHWGNIAVEENVDLKHTGAVLKGPFSRYDYQRQPDSGISSIRSFKTILPAAAQDVYYRDEIGNVSTSHLLILDDSVEMEIRPRFPLFGGWKTHYIVGYNLPSYEYLYNLGDQYALKMRFVDHVFDEQVIDSLTVKIILPEGAKNIEIDSPYEISRAPDELHYTYLDTFGRPVIVAYKKNLVEQHIQDIVVHYTFNKVLMLQEPLLVVAAFYILFFTVIIYVRLDFSITKDPAAEARMKVACITEQVLTLVNKRIGLYRHFDETVNRYKQSRDISTLNSGKKSLETEHKALTSEIALLQSRLKTEGSDLCDRVSEMQKLDAQVKELVLKSAVEAERLVAGKLKKDTYIENEKLISGKRQELVTKIDHILDAL	3
FUS_HUMAN (protein, UniProt P35637 1-526, looked up) RNA-binding protein FUS: MASNDYTQQATQSYGAYPTQPGQGYSQQSSQPYGQQSYSGYSQSTDTSGYGQSSYSSYGQSQNTGYGTQSTPQGYGSTGGYGSSQSSQSSYGQQSSYPGYGQQPAPSSTSGSYGSSSQSSSYGQPQSGSYSQQPSYGGQQQSYGQQQSYNPPQGYGQQNQYNSSSGGGGGGGGGGNYGQDQSSMSSGGGSGGGYGNQDQSGGGGSGGYGQQDRGGRGRGGSGGGGGGGGGGYNRSSGGYEPRGRGGGRGGRGGMGGSDRGGFNKFGGPRDQGSRHDSEQDNSDNNTIFVQGLGENVTIESVADYFKQIGIIKTNKKTGQPMINLYTDRETGKLKGEATVSFDDPPSAKAAIDWFDGKEFSGNPIKVSFATRRADFNRGGGNGRGGRGRGGPMGRGGYGGGGSGGGGRGGFPSGGGGGGGQQRAGDWKCPNPTCENMNFSWRNECNQCKAPKPDGPGGGPGGSHMGGNYGDDRRGGRGGYDRGGYRGRGGDRGGFRGGRGGGDRGGFGPGKMDSRGEHRQDRRERPY	0.5
HXK2_HUMAN (protein, UniProt P52789 1-917, looked up) Hexokinase-2: MIASHLLAYFFTELNHDQVQKVDQYLYHMRLSDETLLEISKRFRKEMEKGLGATTHPTAAVKMLPTFVRSTPDGTEHGEFLALDLGGTNFRVLWVKVTDNGLQKVEMENQIYAIPEDIMRGSGTQLFDHIAECLANFMDKLQIKDKKLPLGFTFSFPCHQTKLDESFLVSWTKGFKSSGVEGRDVVALIRKAIQRRGDFDIDIVAVVNDTVGTMMTCGYDDHNCEIGLIVGTGSNACYMEEMRHIDMVEGDEGRMCINMEWGAFGDDGSLNDIRTEFDQEIDMGSLNPGKQLFEKMISGMYMGELVRLILVKMAKEELLFGGKLSPELLNTGRFETKDISDIEGEKDGIRKAREVLMRLGLDPTQEDCVATHRICQIVSTRSASLCAATLAAVLQRIKENKGEERLRSTIGVDGSVYKKHPHFAKRLHKTVRRLVPGCDVRFLRSEDGSGKGAAMVTAVAYRLADQHRARQKTLEHLQLSHDQLLEVKRRMKVEMERGLSKETHASAPVKMLPTYVCATPDGTEKGDFLALDLGGTNFRVLLVRVRNGKWGGVEMHNKIYAIPQEVMHGTGDELFDHIVQCIADFLEYMGMKGVSLPLGFTFSFPCQQNSLDESILLKWTKGFKASGCEGEDVVTLLKEAIHRREEFDLDVVAVVNDTVGTMMTCGFEDPHCEVGLIVGTGSNACYMEEMRNVELVEGEEGRMCVNMEWGAFGDNGCLDDFRTEFDVAVDELSLNPGKQRFEKMISGMYLGEIVRNILIDFTKRGLLFRGRISERLKTRGIFETKFLSQIESDCLALLQVRAILQHLGLESTCDDSIIVKEVCTVVARRAAQLCGAGMAAVVDRIRENRGLDALKVTVGVDGTLYKLHPHFAKVMHETVKDLAPKCDVSFLQSEDGSGKGAALITAVACRIREAGQR	0.7273
CPSF6_HUMAN (protein, UniProt Q16630 1-551, looked up) Cleavage and polyadenylation …: MADGVDHIDIYADVGEEFNQEAEYGGHDQIDLYDDVISPSANNGDAPEDRDYMDTLPPTVGDDVGKGAAPNVVYTYTGKRIALYIGNLTWWTTDEDLTEAVHSLGVNDILEIKFFENRANGQSKGFALVGVGSEASSKKLMDLLPKRELHGQNPVVTPCNKQFLSQFEMQSRKTTQSGQMSGEGKAGPPGGSSRAAFPQGGRGRGRFPGAVPGGDRFPGPAGPGGPPPPFPAGQTPPRPPLGPPGPPGPPGPPPPGQVLPPPLAGPPNRGDRPPPPVLFPGQPFGQPPLGPLPPGPPPPVPGYGPPPGPPPPQQGPPPPPGPFPPRPPGPLGPPLTLAPPPHLPGPPPGAPPPAPHVNPAFFPPPTNSGMPTSDSRGPPPTDPYGRPPPYDRGDYGPPGREMDTARTPLSEAEFEEIMNRNRAISSSAISRAVSDASAGDYGSAIETLVTAISLIKQSKVSADDRCKVLISSLQDCLHGIESKSYGSGSRRERSRERDHSRSREKSRRHKSRSRDRHDDYYRERSRERERHRDRDRDRDRERDREREYRHR	0.875
DDX21_HUMAN (protein, UniProt Q9NR30 1-783, looked up) Nucleolar RNA helicase 2: MPGKLRSDAGLESDTAMKKGETLRKQTEEKEKKEKPKSDKTEEIAEEEETVFPKAKQVKKKAEPSEVDMNSPKSKKAKKKEEPSQNDISPKTKSLRKKKEPIEKKVVSSKTKKVTKNEEPSEEEIDAPKPKKMKKEKEMNGETREKSPKLKNGFPHPEPDCNPSEAASEESNSEIEQEIPVEQKEGAFSNFPISEETIKLLKGRGVTFLFPIQAKTFHHVYSGKDLIAQARTGTGKTFSFAIPLIEKLHGELQDRKRGRAPQVLVLAPTRELANQVSKDFSDITKKLSVACFYGGTPYGGQFERMRNGIDILVGTPGRIKDHIQNGKLDLTKLKHVVLDEVDQMLDMGFADQVEEILSVAYKKDSEDNPQTLLFSATCPHWVFNVAKKYMKSTYEQVDLIGKKTQKTAITVEHLAIKCHWTQRAAVIGDVIRVYSGHQGRTIIFCETKKEAQELSQNSAIKQDAQSLHGDIPQKQREITLKGFRNGSFGVLVATNVAARGLDIPEVDLVIQSSPPKDVESYIHRSGRTGRAGRTGVCICFYQHKEEYQLVQVEQKAGIKFKRIGVPSATEIIKASSKDAIRLLDSVPPTAISHFKQSAEKLIEEKGAVEALAAALAHISGATSVDQRSLINSNVGFVTMILQCSIEMPNISYAWKELKEQLGEEIDSKVKGMVFLKGKLGVCFDVPTASVTEIQEKWHDSRRWQLSVATEQPELEGPREGYGGFRGQREGSRGFRGQRDGNRRFRGQREGSRGPRGQRSGGGNKSNRSQNKGQKRSFSKAFGQ	1
AT2A2_HUMAN (protein, UniProt P16615 1-1042, looked up) Sarcoplasmic/endoplasmic …: MENAHTKTVEEVLGHFGVNESTGLSLEQVKKLKERWGSNELPAEEGKTLLELVIEQFEDLLVRILLLAACISFVLAWFEEGEETITAFVEPFVILLILVANAIVGVWQERNAENAIEALKEYEPEMGKVYRQDRKSVQRIKAKDIVPGDIVEIAVGDKVPADIRLTSIKSTTLRVDQSILTGESVSVIKHTDPVPDPRAVNQDKKNMLFSGTNIAAGKAMGVVVATGVNTEIGKIRDEMVATEQERTPLQQKLDEFGEQLSKVISLICIAVWIINIGHFNDPVHGGSWIRGAIYYFKIAVALAVAAIPEGLPAVITTCLALGTRRMAKKNAIVRSLPSVETLGCTSVICSDKTGTLTTNQMSVCRMFILDRVEGDTCSLNEFTITGSTYAPIGEVHKDDKPVNCHQYDGLVELATICALCNDSALDYNEAKGVYEKVGEATETALTCLVEKMNVFDTELKGLSKIERANACNSVIKQLMKKEFTLEFSRDRKSMSVYCTPNKPSRTSMSKMFVKGAPEGVIDRCTHIRVGSTKVPMTSGVKQKIMSVIREWGSGSDTLRCLALATHDNPLRREEMHLEDSANFIKYETNLTFVGCVGMLDPPRIEVASSVKLCRQAGIRVIMITGDNKGTAVAICRRIGIFGQDEDVTSKAFTGREFDELNPSAQRDACLNARCFARVEPSHKSKIVEFLQSFDEITAMTGDGVNDAPALKKAEIGIAMGSGTAVAKTASEMVLADDNFSTIVAAVEEGRAIYNNMKQFIRYLISSNVGEVVCIFLTAALGFPEALIPVQLLWVNLVTDGLPATALGFNPPDLDIMNKPPRNPKEPLISGWLFFRYLAIGCYVGAATVGAAAWWFIAADGGPRVSFYQLSHFLQCKEDNPDFEGVDCAIFESPYPMTMALSVLVTIEMCNALNSLSENQSLLRMPPWENIWLVGSICLSMSLHFLILYVEPLPLIFQITPLNVTQWLMVLKISLPVILMDETLKFVARNYLEPGKECVQPATKSCSFSACTDGISWPFVLLIMPLVIWVYSTDTNFSDMFWS	0.75
CDC5L_HUMAN (protein, UniProt Q99459 1-802, looked up) Cell division cycle 5-like …: MPRIMIKGGVWRNTEDEILKAAVMKYGKNQWSRIASLLHRKSAKQCKARWYEWLDPSIKKTEWSREEEEKLLHLAKLMPTQWRTIAPIIGRTAAQCLEHYEFLLDKAAQRDNEEETTDDPRKLKPGEIDPNPETKPARPDPIDMDEDELEMLSEARARLANTQGKKAKRKAREKQLEEARRLAALQKRRELRAAGIEIQKKRKRKRGVDYNAEIPFEKKPALGFYDTSEENYQALDADFRKLRQQDLDGELRSEKEGRDRKKDKQHLKRKKESDLPSAILQTSGVSEFTKKRSKLVLPAPQISDAELQEVVKVGQASEIARQTAEESGITNSASSTLLSEYNVTNNSVALRTPRTPASQDRILQEAQNLMALTNVDTPLKGGLNTPLHESDFSGVTPQRQVVQTPNTVLSTPFRTPSNGAEGLTPRSGTTPKPVINSTPGRTPLRDKLNINPEDGMADYSDPSYVKQMERESREHLRLGLLGLPAPKNDFEIVLPENAEKELEEREIDDTYIEDAADVDARKQAIRDAERVKEMKRMHKAVQKDLPRPSEVNETILRPLNVEPPLTDLQKSEELIKKEMITMLHYDLLHHPYEPSGNKKGKTVGFGTNNSEHITYLEHNPYEKFSKEELKKAQDVLVQEMEVVKQGMSHGELSSEAYNQVWEECYSQVLYLPGQSRYTRANLASKKDRIESLEKRLEINRGHMTTEAKRAAKMEKKMKILLGGYQSRAMGLMKQLNDLWDQIEQAHLELRTFEELKKHEDSAIPRRLECLKEDVQRQQEREKELQHRYADLLLEKETLKSKF	0
